Test results published in the supplement of paper PMC12042874.
± gives the uncertainty stated by the source.

Assay: amyloid nucleation score (Sup35N fusion, yeast selection) (log enrichment); library NNK2; higher = more nucleation; inactive = no reads after selection
Summary of the method: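 Sup35N fusions to peptides of 20 random codons were expressed in psi-negative yeast, induced 24 hours with 100 μM copper sulfate, and grown 7 days at 30°C on medium lacking adenine and uracil. Input and output plasmid inserts were sequenced by Illumina. The nucleation score is the DiMSum log enrichment of output over input reads, centred on the mode score of non-aggregating sequences. Sequences with under 100 input reads were excluded.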

With LGYIRCLHSVSYLLFMYMLF the amyloid nucleation score was “inactive”.
For LRFNDFA, the amyloid nucleation score was “inactive”.
For RFHFSDWR, the amyloid nucleation score was “inactive”.
With YKRCYIKIEWFQMCFNVVTR the amyloid nucleation score was “inactive”.
With RARFWINGFRVL the amyloid nucleation score was “inactive”.
In the case of AHTRSAMGDMPNVNGFLKCT, the amyloid nucleation score is reported as “inactive”.
With LNTLSESLEKNSGTLCWAKR the amyloid nucleation score was “inactive”.
With MDYNLIKCAPWT the amyloid nucleation score was “inactive”.
With EEILHLVPINWGLYYYYTFC the amyloid nucleation score was “inactive”.
With HCTDGFLMAYVSFSRGMIIM the amyloid nucleation score was “inactive”.

Point of comparison: QFVHRYGDHNAGVLPSYRKS, amyloid nucleation score 5.22 ± 0.066. Against it:
- LFSHELADSSTVMKYTWWAV — lower, 4.23 ± 0.045
- VFRVCEMDSSLFHYGLALDR — lower, 0.521 ± 0.3
- NTSIQQIPLMSRLGVAFVIW — lower, -0.781 ± 0.54
- YVPPIGGNRHAHLVASCLGS — lower, 0.434 ± 0.21
- HLPGWSGWRSDFDIHTSGVG — lower, 1.92 ± 0.25
- LLPSSFVGGVNDVVELLSCG — lower, 0.092 ± 1.1
- FMLYMRLCKFYYFFGS — lower, -1.29 ± 0.41
- VESLRLRRSMVRNLILSSSC — lower, -0.125 ± 0.63
- GKLSGTPWTLSGATKRALLY — lower, -0.494 ± 0.64
- MYYLNSFGRELLSGLKCYKT — lower, -0.698 ± 0.5
- YNQFNFFTG — higher, 6.913 ± 0.045
- FTLWFQTLARGGMLARNLFK — lower, -1.17 ± 0.75
- PWNLLGWLRRS — lower, 0.108 ± 0.23
- SSLRLDIVRTVHYSQIPEDA — lower, 1.04 ± 0.33
- KSDPAVIPY — lower, 0.713 ± 0.45
- FSVIICVTALVWACCCTRIV — lower, 1.09 ± 0.36
- APFDMVGVTVLDSPVMYTNA — lower, 0.512 ± 0.43
- VWVKVLYYSRDICTLWSPGW — lower, -0.059 ± 0.5
- QFLSYCFWIGNPLVNFINAN — higher, 5.874 ± 0.039
- ARCDCGFVRGGNCVVQYCLS — higher, 7.529 ± 0.04
- CYMCWFNIILLQKFKRQGVL — lower, 4.29 ± 0.063
- RNADI — lower, 0.343 ± 0.46
- GIHGIIITRV — lower, 3.22 ± 0.14
- SVRVVDDGKTGGVGGTSQR — lower, 0.767 ± 0.8
- FKFVGNSQAQVWNMCESNDS — lower, -0.369 ± 0.64
- MLSDSLLDCRVLLMVFGRET — lower, 3.81 ± 0.051
- ACLFWIYARRHRLAWVVFIW — lower, -0.487 ± 1.1
- EAVNGWALLHIVSQ — lower, 0.111 ± 0.33
- LIFQVMFVDCIEFRCWNMAL — lower, 0.959 ± 0.6
- RLSPPLCVLIYIMRYLNGYW — lower, 0.42 ± 0.66
- VSQFYSMPLTSSYWSLVSSL — lower, 0.147 ± 0.65
- PLSPFTHGLSQYIALEIDGQ — lower, -0.254 ± 0.63
- TTVERWVVFRKVQMRYRIRL — higher, 5.396 ± 0.049
- SGRCNSN — lower, -0.63 ± 0.79
- QFRLQWGLLVQCAGDSVLVM — lower, -0.085 ± 0.61
- ESHCYSGDTWLCLCLSLVTR — higher, 8.457 ± 0.034
- RYGRRSYLPAIIRCARCLDE — higher, 6.56 ± 0.066
- LCRCNATRGGCCLFLGCFWL — lower, 2.73 ± 0.09
- SLAWARISGVVAICTVGRGF — higher, 7.44 ± 0.032
- GNIDGLLQFEYRW — lower, 0.552 ± 0.66
- SNYLAPYNNSDATYCG — lower, -0.361 ± 0.54
- FIEGVRMHLRGM — lower, 2.86 ± 0.094
- VEMLFLSFMRPVLLGTMVAV — lower, 0.007 ± 1.1
- LSVCGSWDRRRFGGYDLWCT — lower, 0.903 ± 0.48
- SSVVFCSNPGVYGSSRWTSV — lower, 0.492 ± 0.41
- LLHSWSYRCV — lower, 0.039 ± 0.77
- SLAQDVRGYGLCNGKTNIVW — lower, -0.867 ± 0.35
- GCIIFGYLG — lower, 1.57 ± 0.16
- VASYAIGSFYADVACVEPRY — lower, 0.835 ± 0.43
- EGNNCW — lower, 0.22 ± 0.23
- MPIEVILCFGG — lower, 1.84 ± 0.34
- LTFVCVV — lower, 0.048 ± 0.33
- SLSCGLYGYMTNSCSYVHRT — lower, 4.22 ± 0.053
- SDTGGSVYMKTVGRTHLTYD — lower, -0.252 ± 0.25
- VEAIWHWVCYWSGMWSLGPG — lower, 3.69 ± 0.057
- QDFCSEGCLEDVSSLY — lower, -1.37 ± 0.49
- AYTMQLNHRLVLSVSS — lower, 0.219 ± 0.74
- IRFQCRSLRFTAIGGQVSWI — lower, 3.48 ± 0.095
